The data set is described as follows: label from the status in PepcDB records.

Consider eleven sequences from a protein production outcome set (Wang et al. 2014).

In the case of “MTAIRFDHVDVIFGTHTKEALKLLDQGLGRAEILKRTGQVLGVEDACLDVNRGEICVLMGLSGSGKSSLLRCINGLNKVSRGKLLIEHEGSQVDIANCSPATLKAMRTKRIAMVFQKFALMPWLTVAENVGFGLEMQGRPAAERKKLIDEKLELVGLSQWRDKRPDSLSGGMQQRVGLARALAMDGDILLMDEPFSALDPLIRQQLQDELLVLQRQLHKTIVFVSHDLDEALKIGTRIAIMKDGRIIQHGKPEEIVLSPADDYVRTFVAHTNPLNVLCGQSLMRGLDQCIRQNDEICFDQGRDCWIGLSEGDVLKGARQGSNVIDLQRWRQGDPVEKLRREPTLVDVSIRMRDALQIRYQTGHKLVLQEQDRVVGVLGDSELYHALLGKN”, the protein production entry is on record as “failed”. Consider “MTALPLSAVTVVSVCYNSDRLIRDLVTAIPDETPIILVDNGHTNTFADLPPHRNVIIVKLDHNLGFGRGCNAGADVAQTPWILFLNPDARLNPGAIEGLLQAAAQYPSAIAFNPRIYNEDGSPYFKRRSWLLPRQHYMKKGWPSADAVVPVLSGAALFVSKKSFDYIGGFDPSIFMYHEDDDLSLRLSALGELRFVRNSTVVHFAGYSSGRSPEIARFKAYHMAQSKIYAGQKHHRPFAKTSTLLQGCLLLLSPHVFFSARRRAKALGFLHGALAKIWSELLNAASTSSQKKTLEHHHHHH”, for which the protein production result is “not failed”. Take “MTAPTLSRAAMEKVIRTYYDGCNEADEAKMIACFVPEAVHYFPAGMYGGAFRGAAQIAHRWRTAVETLGSYWTIDALVIDAETAEAAIEWTHFKTNQDKVLRGAECVEFDRASGLIREIRAFYASPQAEGIARLELGDFDYAGRGYRVTSPRKPA”: the protein production entry is recorded as “not failed”. With “MTASTAPQTEPHKTSAPESGPVMLLVATIKGAWFLASDPARRTWELRGPVFLGHTIHHIVQDPREPERMLMAARTGHLGPTVFRSDDGGGNWTEATRPPAFNKAPEGETGRVVDHVFWLTPGHASEPGTWYAGTSPQGLFRSTDHGASWEPVAGFNDHPMRRAWTGGEQDGTPDGPKMHSILVDPRDPKHLYIGMSSGGVFESTDAGTDWKPLNRGCAANFLPDPNVEFGHDPHCVVQHPAAPDILYQQNHCGIYRMDRREGVWKRIGDAMPREVGDIGFPIVVHQRDPRTVWVFPMDGSDVWPRVSPGGKPAVYVTRDAGESWQRQDRGLPTDQAWLTVKRQAMTADAHAPVGVYFGTTGGEIWASADEGEHWQCIASHLPHIYAVQSARPV”, the protein production result was “not failed”. As for “MTATIPPLTPTVTPSNPDRPIADLKLQDIIKTLPKECFEKKASKAWASVLITLGAIAVGYLGIIYLPWYCLPITWIWTGTALTGAFVVGHDCGHRSFAKKRWVNDLVGHIAFAPLIYPFHSWRLLHDHHHLHTNKIEVDNAWDPWSVEAFQASPAIVRLFYRAIRGPFWWTGSIFHWSLMHFKLSNFAQRDRNKVKLSIAVVFLFAAIAFPALIITTGVWGFVKFWLMPWLVYHFWMSTFTIVHHTIPEIRFRPAADWSAAEAQLNGTVHCDYPRWVEVLCHDINVHIPHHLSVAIPSYNLRLAHGSLKENWGPFLYERTFNWQLMQQISGQCHLYDPEHGYRTFGSLKKV”, the protein production entry was “failed”. With “MTCHNAAGALEPTGSAAKTLPDGLHALMTAEELAFFARFGRLREVSAGQSLFERGAVGTQMYIVVSGQIDLDFGEDLMLKHLGPGEFFGELGLLIGDHARSAGASASTDSRLIELAHDDFQRLVDQDPSMVAHFLRRSIVRVVNNEQLLIRQLRRRNHDLEAALDNLYVTSHQLNHTEELSRTDELTGLHNRRGLALHLQECRRAGHVPGVGLILIDCDRFKRINDEFGHLAGDRVLQNVAHALRSVIAEGDLACRLGGDEFCVLVAQGTSELVHHIGECIVRAVEARLCNGQGEQGCSVSVGSCMIDADAAWNDWYTLADSALYEAKRQGGNVLCMQETLALDQPPASGHR”, the protein production result is given as “failed”.

Take “MTCRPALSDSHPPEPGTPSSPSFGVCGDRPLLRERGQHEVFCGLAGIIWLHRKIQDAFFLIIGSRTCAHLMQSAAGVMIFAEPRFATAVLEEQDLAGLADAQDEIDRVVARLLERRPDIRLLFLVGSCPSEVIKIDLQRAALRLSKVHGARTRVVSYSGSGLETTFTQGEDACLAALVPDLPSAAADEAPDLLVVGTLPDVVEDQFGRLFAEMGIARTAFLPPRRSTALPAIGPKTRFLLAQPFLGDTARCLEARGARRLAAPFPFGVEGTTGWLAAAAQAFGVDDLTFRRVTAPGRERAARALERQRATLEGKRVFFFPESQLEIPLARFLVRELGMEAIEIGTPYLHRAHLAEELALLPATALLSEGQDVDRQLDRCRAARPDLVVCGLGLANPLEAEGITTKWSIELVFSPIHGYEQAGDLAELFARPLLRRALLKV”: the protein production result is “failed”. With “MTDAHTVCPKFESAFQLLGKRWTGLIINVLLTGPKRFKQVAAEIPQMSDRVLAERLKELEEMDICLRQVYPETPVRIEYELTEKGKALQEVMLEVQCWADKWVEVPN” the entry was “failed”; with “MTDDKKIRAAIVGYGNIGRYALQALREAPDFEIAGIVRRNPAEVPFELQPFRVVSDIEQLESVDVALVCSPSREVERTALEILKKGICTADSFDIHDGILALRRSLGDAAGKSGAAAVIASGWDPGSDSVVRTLMQAIVPKGITYTNFGPGMSMGHTVAVKAIDGVKAALSMTIPLGTGVHRRMVYVELLPGHNLEEVSAAIKADEYFVHDETHVIQVDEVDALIDMGHGVRMVRKGVSGSTQNQRMSFDMEINNPALTGQVLVCAARAAMRQQPGAYTLQEIPVIDLLPGDREQWIGKLC”, “not failed”. With “MTDFSRTFSGTPSAVLPTANRFFRPPLPSAHVARPRLCRRLRDGLDGRLLLIAAPAGFGKSSLAIEFCESLDPRWQSLWLGLSSRESDPGRFLERLLDGLRQYHPTLGEEALGLLKMRQRHQPFAFETWLDDLLDELAPCLDPQRPLLLVLDDYHLAQGAVLDRCLQFLLNHLPEGLVLLVTSRQRPDWHLARLRLSRQLLELSEQDLRLTAEESGALMAASGLELDEDALDALLERSEGWVAGLRLWLLARGDPEEQVSPGVHGADELIRDYLLEEVIERQPPEVQAFLAQTARFERFCAELCDTVREAGDSAAILDHLQQHQVFLVPLDENGQWFRYHHLFSDLLLARPLPDFGPSAGSLHLRACGWFSRHGLLDQAVEQALRAGQPDVAASLVQNLSEEQLLAEQNIATLLRWKMDLPDSLLASTPRLILLYGWALALACQLDAAEELAGQLARFLPAPDESAQRDLLAQWQALSGVIARGRGDIDKAEAHCREALQDLAGERYGTRLQCLSTLSNLAVTRGDFWQARNYNRDALEFAQRYGNPLFEALVHYDRARVLQARGEVARAEEEVRQGLERLQHLPAQRRYAVRGRLLLYRGYLRSLALQPDEARKWIKQGIEETRSCRDVSLVIGYCVLASLEGRLGNYAAAFARLGDVERLMHAWDIPPIYYLAAITLIKCELWLAQGQTELAGVWLQRLGGTYGGQAATPPECSPLLPLHVELLQAGLERREGRPEEAARRLDRLARSTRENGALLPARLALGQLAALHLEQGREREALATLQQAMEGAVGGALLPLHELLVQQPEWLREQLQRFPACPGAQRMRALLPEPPAEPAGSAGEVLSGRELAVLELIAQGLSNQEISERLFISLHTVKSHARHINDKLGVERRTQAVARAKHMGLLR” the entry was “failed”; with “MTDGTTDGLNKAAVFICHCSGNISEHVDINTVKKTLKAEGFSVYDYEYLCSSQGQALIKKKISEGHVDRVVIGSCTPSKHGTLFKKCIQETGLNRAGLEIANLREQCAWVHPDREGATEKALSLLKAKLKRLENIEPLEDIKVDIAQQVLVIGGGIAGITAALNLADNGVPTFLVEKDSSIGGQMAKIGKIFSPDKLAEECAMCSLSPLMNEVAAHPRITLLTWTEVEKLSGSAGNFTVRLKKKPRYVKDNCIACGKCSRVCPVSVEDEFNCGYMDKKAISLRFSQSVPKVYFIDPDSCLRLKGENCGKCAEACKTGAIDFSQKEEIIELNVGAVVVATGFEEYDVSQKPQYGYGIFENVLTQMELARVLGINGPTKGELLRISDFSKASSDPAPSTCDSRCESSSDHPFEVETPERIVMIQCVGSRDEKEGGNRYCSRYCCMAALKHASLIKKRYPKTEITICYIDMRAFGFYENYYRAVQETGVNFVRGRPAEVIEKPDKSLVVRVEDTLSQKIKEIPADMVVLSAAMVPSPGTKKIASVLNLSQDESGFIKERHSKLKPVDCSLDGIFVCGTAQSPKDVTDTIAQAGLAAVRARAFITDSPKVLDNEIAAINQLLCTRCGECLKCPFDALSINENGRVVLDPLICTGCGYCTELCREGAVQIAGFTKSQLKAELEGVLEEGDVLGFVNSGISSLTCDNIGNSVLTYPSSVKLIKVPTCLIVDRDLVLHAFRHGASSVLFVEDPPDSPRAEVIYPLTVSHFEKLKEELGDSGKRIHFKKAYVPNIKGLAGTFTSLAREGEMIK”, “failed”.
